Tests used:
[1] = target: MS2 coat protein (NL_MS2_HIS) (UniProt P03612 SEQ:194-322); assay: ELONA; RPB-ELISA; non-target RNA; conditions: tags: N-term luciferase, C-term 6xHis; chain copies: 2; label: 5'-biotin
NL_v2_PPR23 = target: T1, NL_v2_PPR23 (Artificial Sequence); assay: ELONA; RPB-ELISA; conditions: tags: N-term luciferase, C-term 6xHis; label: 5'-biotin
T1 chain: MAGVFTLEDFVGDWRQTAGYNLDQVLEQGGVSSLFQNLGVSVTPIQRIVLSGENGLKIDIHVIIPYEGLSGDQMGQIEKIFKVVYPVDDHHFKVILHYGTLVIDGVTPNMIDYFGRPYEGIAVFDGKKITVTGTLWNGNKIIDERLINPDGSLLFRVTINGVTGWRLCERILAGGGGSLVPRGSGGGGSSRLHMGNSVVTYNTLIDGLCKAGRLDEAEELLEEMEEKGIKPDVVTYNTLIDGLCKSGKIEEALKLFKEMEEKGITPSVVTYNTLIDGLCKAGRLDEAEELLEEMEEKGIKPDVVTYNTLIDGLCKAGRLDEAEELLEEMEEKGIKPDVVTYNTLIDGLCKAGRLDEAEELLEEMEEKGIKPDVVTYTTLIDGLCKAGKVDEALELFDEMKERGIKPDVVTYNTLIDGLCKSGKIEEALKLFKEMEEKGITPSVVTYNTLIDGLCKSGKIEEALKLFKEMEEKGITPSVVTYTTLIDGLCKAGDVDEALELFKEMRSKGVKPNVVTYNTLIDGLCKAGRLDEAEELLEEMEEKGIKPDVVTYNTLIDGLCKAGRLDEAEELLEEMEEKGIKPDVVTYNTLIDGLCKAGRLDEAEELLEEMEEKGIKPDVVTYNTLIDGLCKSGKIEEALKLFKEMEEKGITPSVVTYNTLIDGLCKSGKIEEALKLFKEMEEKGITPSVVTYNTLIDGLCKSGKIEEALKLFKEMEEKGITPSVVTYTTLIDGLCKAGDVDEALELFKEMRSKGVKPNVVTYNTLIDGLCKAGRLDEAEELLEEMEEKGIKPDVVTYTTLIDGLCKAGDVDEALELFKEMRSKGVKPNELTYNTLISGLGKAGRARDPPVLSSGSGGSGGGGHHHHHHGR

v3.1_PPR23 = target: T2, v3.1_PPR23 (Artificial Sequence); assay: ELONA; RPB-ELISA; conditions: tags: luciferase fusion; label: 5'-biotin
T2 chain: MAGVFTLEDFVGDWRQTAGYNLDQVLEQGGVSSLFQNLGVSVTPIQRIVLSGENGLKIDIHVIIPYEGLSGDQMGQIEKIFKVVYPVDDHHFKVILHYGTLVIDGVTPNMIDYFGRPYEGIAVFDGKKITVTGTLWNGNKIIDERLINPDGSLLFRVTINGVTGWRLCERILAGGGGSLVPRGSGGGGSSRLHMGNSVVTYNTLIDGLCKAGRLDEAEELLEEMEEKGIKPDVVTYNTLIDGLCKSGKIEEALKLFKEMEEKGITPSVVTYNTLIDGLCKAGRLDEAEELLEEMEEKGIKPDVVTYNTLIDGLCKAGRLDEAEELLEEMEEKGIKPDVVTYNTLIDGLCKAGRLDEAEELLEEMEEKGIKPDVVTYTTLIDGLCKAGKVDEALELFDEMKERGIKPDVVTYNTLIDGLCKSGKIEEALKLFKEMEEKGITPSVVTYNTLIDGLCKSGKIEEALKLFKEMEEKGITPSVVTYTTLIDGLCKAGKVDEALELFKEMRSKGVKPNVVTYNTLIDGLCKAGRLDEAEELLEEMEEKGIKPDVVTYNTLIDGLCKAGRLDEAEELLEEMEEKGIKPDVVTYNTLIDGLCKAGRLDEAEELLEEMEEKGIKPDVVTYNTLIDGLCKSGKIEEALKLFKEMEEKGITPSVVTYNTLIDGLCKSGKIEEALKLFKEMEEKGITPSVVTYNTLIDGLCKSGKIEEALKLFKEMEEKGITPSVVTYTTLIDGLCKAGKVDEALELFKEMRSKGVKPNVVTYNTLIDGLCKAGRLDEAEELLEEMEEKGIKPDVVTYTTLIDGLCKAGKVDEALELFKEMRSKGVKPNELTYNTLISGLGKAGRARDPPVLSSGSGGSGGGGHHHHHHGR

v3.1_PPR24 = target: T3, v3.1_PPR24 (Artificial Sequence); assay: ELONA; RPB-ELISA; conditions: tags: luciferase fusion; label: 5'-biotin
T3 chain: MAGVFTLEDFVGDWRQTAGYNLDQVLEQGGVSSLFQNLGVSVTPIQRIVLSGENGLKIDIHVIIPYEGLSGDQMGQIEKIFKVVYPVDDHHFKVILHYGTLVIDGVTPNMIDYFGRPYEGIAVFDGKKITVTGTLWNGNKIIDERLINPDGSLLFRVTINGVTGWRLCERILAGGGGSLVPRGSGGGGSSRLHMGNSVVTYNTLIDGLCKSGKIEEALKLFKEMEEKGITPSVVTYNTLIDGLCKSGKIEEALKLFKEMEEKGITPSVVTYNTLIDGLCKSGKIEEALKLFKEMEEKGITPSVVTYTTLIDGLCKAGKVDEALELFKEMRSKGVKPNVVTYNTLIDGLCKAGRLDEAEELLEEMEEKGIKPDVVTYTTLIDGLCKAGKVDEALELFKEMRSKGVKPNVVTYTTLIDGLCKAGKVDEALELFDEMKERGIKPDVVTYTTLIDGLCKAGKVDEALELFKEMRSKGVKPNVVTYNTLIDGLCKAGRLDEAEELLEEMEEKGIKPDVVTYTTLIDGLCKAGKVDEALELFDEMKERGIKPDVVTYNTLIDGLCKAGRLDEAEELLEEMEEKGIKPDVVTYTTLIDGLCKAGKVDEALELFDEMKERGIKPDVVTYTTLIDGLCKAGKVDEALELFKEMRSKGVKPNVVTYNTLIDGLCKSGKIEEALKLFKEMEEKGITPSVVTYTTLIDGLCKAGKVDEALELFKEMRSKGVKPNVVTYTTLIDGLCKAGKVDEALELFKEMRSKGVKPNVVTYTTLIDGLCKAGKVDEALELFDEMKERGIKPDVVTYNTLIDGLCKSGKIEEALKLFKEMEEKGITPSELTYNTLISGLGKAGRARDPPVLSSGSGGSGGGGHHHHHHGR

NL_v2_PPR22 = target: T4, NL_v2_PPR22 (Artificial Sequence); assay: ELONA; RPB-ELISA; conditions: tags: N-term luciferase, C-term 6xHis; label: 5'-biotin
T4 chain: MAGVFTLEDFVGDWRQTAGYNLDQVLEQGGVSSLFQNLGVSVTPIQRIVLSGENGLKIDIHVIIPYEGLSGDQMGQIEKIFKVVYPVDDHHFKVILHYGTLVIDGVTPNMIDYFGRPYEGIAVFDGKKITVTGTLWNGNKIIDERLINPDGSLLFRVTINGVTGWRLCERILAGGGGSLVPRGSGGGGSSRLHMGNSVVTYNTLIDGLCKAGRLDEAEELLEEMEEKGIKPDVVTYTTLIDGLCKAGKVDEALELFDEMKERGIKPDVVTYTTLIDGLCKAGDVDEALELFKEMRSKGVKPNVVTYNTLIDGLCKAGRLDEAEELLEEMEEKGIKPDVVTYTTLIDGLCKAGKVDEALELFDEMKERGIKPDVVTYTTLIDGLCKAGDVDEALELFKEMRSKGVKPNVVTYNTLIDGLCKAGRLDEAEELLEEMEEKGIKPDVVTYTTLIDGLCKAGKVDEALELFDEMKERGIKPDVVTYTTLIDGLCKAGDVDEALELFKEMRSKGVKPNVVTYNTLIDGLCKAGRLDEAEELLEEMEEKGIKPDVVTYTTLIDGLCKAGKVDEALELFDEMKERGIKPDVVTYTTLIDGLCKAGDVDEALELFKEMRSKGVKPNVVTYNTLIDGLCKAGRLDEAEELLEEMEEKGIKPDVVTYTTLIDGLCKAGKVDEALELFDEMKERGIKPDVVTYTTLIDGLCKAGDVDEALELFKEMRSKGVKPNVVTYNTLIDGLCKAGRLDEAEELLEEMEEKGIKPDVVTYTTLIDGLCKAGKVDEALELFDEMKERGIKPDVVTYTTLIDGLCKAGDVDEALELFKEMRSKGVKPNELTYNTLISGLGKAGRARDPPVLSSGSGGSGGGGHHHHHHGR

v3.1_PPR22 = target: T5, v3.1_PPR22 (Artificial Sequence); assay: ELONA; RPB-ELISA; conditions: tags: luciferase fusion; label: 5'-biotin
T5 chain: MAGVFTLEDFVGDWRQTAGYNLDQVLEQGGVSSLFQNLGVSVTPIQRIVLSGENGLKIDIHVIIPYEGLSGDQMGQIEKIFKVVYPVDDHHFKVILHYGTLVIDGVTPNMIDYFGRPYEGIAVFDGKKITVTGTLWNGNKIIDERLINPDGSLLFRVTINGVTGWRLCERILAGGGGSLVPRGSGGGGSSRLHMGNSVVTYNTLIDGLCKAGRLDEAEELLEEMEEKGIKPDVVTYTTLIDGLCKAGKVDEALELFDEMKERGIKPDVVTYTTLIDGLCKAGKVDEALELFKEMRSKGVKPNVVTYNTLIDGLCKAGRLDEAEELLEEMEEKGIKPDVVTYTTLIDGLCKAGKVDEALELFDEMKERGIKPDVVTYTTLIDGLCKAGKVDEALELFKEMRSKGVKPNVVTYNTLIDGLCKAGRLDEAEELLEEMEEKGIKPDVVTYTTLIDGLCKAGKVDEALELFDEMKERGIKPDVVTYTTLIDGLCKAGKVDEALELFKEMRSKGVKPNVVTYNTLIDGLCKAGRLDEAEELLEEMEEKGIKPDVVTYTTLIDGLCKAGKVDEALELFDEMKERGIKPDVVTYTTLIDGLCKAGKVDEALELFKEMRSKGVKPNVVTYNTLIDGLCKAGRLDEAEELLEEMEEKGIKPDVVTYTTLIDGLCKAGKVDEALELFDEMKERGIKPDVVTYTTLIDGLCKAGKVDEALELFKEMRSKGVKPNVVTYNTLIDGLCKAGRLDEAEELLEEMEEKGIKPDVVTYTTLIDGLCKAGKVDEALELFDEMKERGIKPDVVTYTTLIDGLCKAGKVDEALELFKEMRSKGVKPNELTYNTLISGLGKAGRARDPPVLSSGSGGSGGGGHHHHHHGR

MS2 coat protein (NL_MS2_HIS), sequence (P03612 2-130): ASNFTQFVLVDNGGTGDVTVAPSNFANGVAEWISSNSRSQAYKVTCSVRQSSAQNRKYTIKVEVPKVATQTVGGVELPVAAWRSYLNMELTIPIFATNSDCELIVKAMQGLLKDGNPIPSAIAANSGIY

GACAUGCUGGUGUAUCUUGUCUUUAGACUG (ssRNA) [RNA_51]
binding result [1]: no binding

GACAUGCUCUUUGCCAUUUCCCAUAGACUG (ssRNA) [RNA_23]
binding signal (NL_v2_PPR23): 2.6e+07 luminescence | binding signal (v3.1_PPR23): 5.3e+07 luminescence

GACAUGCCCCAUAGAUGUGACAAGCGACUG (ssRNA) [RNA_24]
binding signal (v3.1_PPR24): 5.5e+07 luminescence

GACAUGCUGAUGAUGAUGAUGAUGAGACUG (ssRNA) [RNA_22]
binding signal (NL_v2_PPR22): 5.6e+07 luminescence | binding signal (v3.1_PPR22): 5.5e+07 luminescence

— US20220289795, “EFFICIENT METHOD FOR PREPARING PPR PROTEIN AND USE OF THE SAME” (EditForce, Inc., published 2022)
